# Article PMC8660796, “Structural and molecular basis for Cardiovirus 2A protein as a viral gene expression switch”
# Changes are numbered by the printed parent chain. Names may count otherwise.
# T1: EMCV 2A wild type (Encephalomyocarditis virus (EMCV), UniProt P12296 902-1044)
# T1 sequence: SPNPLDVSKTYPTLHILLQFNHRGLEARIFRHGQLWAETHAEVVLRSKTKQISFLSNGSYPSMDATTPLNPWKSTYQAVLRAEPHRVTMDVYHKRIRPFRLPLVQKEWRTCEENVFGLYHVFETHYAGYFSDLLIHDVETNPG
# B1: EMCV 3 G7C (structured_RNA)
# RNA: GGGUUUUUCAGACUCAACGAGCGGCAGUGUCAUCAAUGGCUCAAACCCUACUGCCGAA
# B2: EMCV 3 C37G (structured_RNA)
# RNA: B1 RNA with C18G, C48G
# B3: EMCV 3 G7C+C37G (structured_RNA)
# RNA: B1 RNA with C48G
# Assays:
# [1] = target: T1, EMCV 2A wild type; assay: EMSA; MST: 50 mM Tris-HCl pH 7.8, 150 mM NaCl, 10 mM MgCl2, 2 mM DTT, 0.05% Tween 20, 25 C; EMSA: 10 mM Tris-HCl pH 7.4, ~140 mM salt, 2 mM Mg acetate, 1 mM DTT, 5% glycerol, 100 ug/mL tRNA, 37 C; ITC: 50 mM Tris-HCl pH 7.4, 400 mM NaCl, 25 C; tweezers: 20 mM HEPES pH 7.6, 300 mM KCl, 5 mM MgCl2, 5 mM DTT, 0.05% Tween; details: protein: recombinant; tags: C-terminal GlySerLysHis6; label: 5' Cy5
# [2] = target: T1, EMCV 2A wild type; assay: EMSA; binding restored; MST: 50 mM Tris-HCl pH 7.8, 150 mM NaCl, 10 mM MgCl2, 2 mM DTT, 0.05% Tween 20, 25 C; EMSA: 10 mM Tris-HCl pH 7.4, ~140 mM salt, 2 mM Mg acetate, 1 mM DTT, 5% glycerol, 100 ug/mL tRNA, 37 C; ITC: 50 mM Tris-HCl pH 7.4, 400 mM NaCl, 25 C; tweezers: 20 mM HEPES pH 7.6, 300 mM KCl, 5 mM MgCl2, 5 mM DTT, 0.05% Tween; details: protein: recombinant; tags: C-terminal GlySerLysHis6; label: 5' Cy5; pseudoknot-like
# [3] = target: T1, EMCV 2A wild type; assay: MST; labelled 2A; MST: 50 mM Tris-HCl pH 7.8, 150 mM NaCl, 10 mM MgCl2, 2 mM DTT, 0.05% Tween 20, 25 C; EMSA: 10 mM Tris-HCl pH 7.4, ~140 mM salt, 2 mM Mg acetate, 1 mM DTT, 5% glycerol, 100 ug/mL tRNA, 37 C; ITC: 50 mM Tris-HCl pH 7.4, 400 mM NaCl, 25 C; tweezers: 20 mM HEPES pH 7.6, 300 mM KCl, 5 mM MgCl2, 5 mM DTT, 0.05% Tween; details: protein: recombinant; tags: C-terminal GlySerLysHis6; label: 5' fluorophore (Dylight 650 in MST, A647/Cy5 in EMSA); unlabelled when 2A is labelled; stem-loop
Binder,binding result [1],further results
B1,no binding,–
B2,no binding,–
B3,–,binding result [2]: binds
AGCGGCAGUGUCAUCAAUGGCUCAAACCCUACUGCCGAA (structured_RNA) [EMCV 4],–,binding result [3]: no binding
